Each block holds one molecule with its values, some of them ahead of it. [ ]: non-standard residue; d: D form. Nle = CCCC[C@H](N)C(=O)O
What was measured:
corneodesmosin = assay: Degradation of corneodesmosin extracted from human stratum corneum; format: biochemical; settings: for % Residual corneodesmosin T24 h/T0*100 / Standardized corneodesmosin T24 h / Standardized corneodesmosin T0: stratum corneum acetone powder; for % Residual corneodesmosin T24 h/T0*100 / Standardized corneodesmosin T24 h: acetate buffer pH 5, 30° C.; for Standardized corneodesmosin T0: acetate buffer pH 5, T0
Protocol: Corneodesmosin is a marker for desquamation since it is involved in corneocyte cohesion at corneodesmosomes. The more the protein is degraded, the more significant is the detachment of the corneocytes. Corneodesmosin degradation is therefore a key step of desquamation.
The test used in this study therefore consists in following this degradation in the presence of the test substance.
Acetone powders are prepared using stripping varnish (Mehul B, Bernard D, Simonetti L, Bernard M A, Schmidt R: Identification and cloning of a new calmodulin-like protein from human epidermis. J Biol Chem 275: […], 2000), taken from the lower parts of the legs of volunteers with dry skin. Aliquot fractions of 2 mg of stratum corneum powder are introduced separately into Eppendorf tubes, and then immersed in the test solutions in a proportion of 100 μl/mg. The solutions are prepared in acetate buffer, pH 5. A control without protease is prepared in parallel in order to evaluate the natural degradation of corneodesmosin. For each test, three samples are prepared. The samples, trials and control, are incubated at 30° C., with stirring for 24 hours.
The proteins are extracted with complete Laemmli buffer. They are assayed by the Bradford method (Bio-Rad® kit). The concentration of each sample is adjusted so as to allow comparison of the samples. The polypeptides are separated by SDS-PAGE electrophoresis on a 15% acrylamide gel, and then transferred onto a PVDF membrane. Immunodetection with a solution of anti-corneodesmosin antibody used at 1/12 500 and of secondary antibody coupled to peroxidase makes it possible to visualize the corneodesmosin. The bands detected by chemiluminescence are quantified using the Quantity One® program from the company Biorad. The membranes are then stained with amido-black, and then scanned. In addition, the keratins, which are major proteins of corneocyte extracts, are quantified in order to verify the adjustment to 0.6 mg/ml of all the samples.
A positive control for degradation (+) is prepared using 5 mM of EDTA. A trial is carried out in the presence of 60 μg of activated SASPase. A negative control represents the natural degradation of corneodesmosin under the operating conditions of the test.

[1] = target: T1, activated SASPase (SEQ ID NO: 6) (Homo sapiens, UniProt Q53RT3); assay: Effect of retropepsin inhibitors on the caseinolytic activity of the activated SASPase; format: biochemical; settings: activated SASPase in 0.1 M acetate buffer pH 5.5 with DMSO, pre-incubated 1 hour at 4° C., Enzchek casein, 37° C., FIG. 3
T1 construct: GST (N, cleaved yes); made in house; host or cells: E. coli BL21 (DE3)
T1 sequence (Q53RT3 189-326): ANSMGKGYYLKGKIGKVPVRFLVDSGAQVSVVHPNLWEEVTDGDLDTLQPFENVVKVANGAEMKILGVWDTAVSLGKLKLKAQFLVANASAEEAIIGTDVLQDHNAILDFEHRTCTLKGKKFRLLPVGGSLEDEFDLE
Protocol: 10 μl of activated SASPase (SEQ ID NO: 6) that have been autoactivated (approximately 3 mg/ml) are added to 200 μl of 0.1 M acetate buffer, pH 5.5, containing 20 μl of DMSO with retropepsin inhibitors. A control assay is carried out under the same conditions in the absence of inhibitor.
The mixture is pre-incubated at 4° C. for 1 hour, and the substrate, casein, sold under the name Enzchek® by the company Molecular Probes, is then added in sufficient amount to obtain the concentration recommended by the supplier, the solutions having been heated to 37° C. beforehand.
The casein hydrolysis is followed by measuring the fluorescence on a Biolumin® plate reader sold by the company Molecular Probes, using the excitation/emission couple: 485/535 nm.

SASPase (GST-C27) = target: T2, SASPase (GST-C27) (Homo sapiens, UniProt Q53RT3); assay: Hydrolysis of quenched Abz/(NO2)Tyr peptide substrates by the SASPase; format: biochemical
T2 construct: made in house; host or cells: E. coli BL21 (DE3)
T2 sequence (Q53RT3 85-343): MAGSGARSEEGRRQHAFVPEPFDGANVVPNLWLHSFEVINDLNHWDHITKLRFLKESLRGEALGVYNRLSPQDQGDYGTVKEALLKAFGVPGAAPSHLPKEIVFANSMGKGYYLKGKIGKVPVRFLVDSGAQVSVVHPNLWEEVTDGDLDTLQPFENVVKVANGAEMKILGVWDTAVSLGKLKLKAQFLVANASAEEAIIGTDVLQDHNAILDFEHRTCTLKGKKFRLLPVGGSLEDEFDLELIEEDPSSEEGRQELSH
Protocol: The peptide substrate considered (SEQ ID NO: 31, SEQ ID NO: 32, SEQ ID NO: 33, SEQ ID NO: 34 or SEQ ID NO: 35) quenched using the Abz/(NO2)Tyr fluorescent system is used at 100 μM in DMSO, and then 10 μl of this stock substrate solution are added per 100 μl of 0.1 M acetate buffer, pH 5.00.
10 μg of GST-C27 (fusion protein at 1 mg/ml in PBS) are added. Incubation is carried out at 37° C. The fluorescence is read at 340/450 nm on a Biolumin plate reader at various times.

[2] = tested on: SASPase C27 (autocleavage); assay: Autocleavage of the SASPase C27 and of its mutants (SDS-PAGE); format: biochemical, human; settings: fusion protein in 1 M acetate buffer pH 4.5, 37° C., SDS-PAGE over time
Protocol: The SASPase sequence SEQ ID NO: 5 is modified at aspartic acid No. 212, i.e. on its potential active site. To do this, two oligonucleotides are synthesized such that amino acid 212 is substituted either to alanine (mutant A/D), or to glutamic acid (mutant E/D).
The mutated recombinant proteins are produced according to the same protocol as for the wild-type form, SASPase C27; (SEQ ID NO: 4).
Each recombinant protein produced in fusion protein form is then incubated in a 1 M acetate buffer, pH 4.5, at 37° C. Samples are taken over time and are analyzed by SDS-PAGE.

casein = assay: Influence of pH on the proteolytic activity of SASPase (Enzchek casein substrate); format: biochemical
Protocol: 10 μl of GST-SASPase Δ 1-84 fusion proteins (approximately 3 mg/ml) obtained in example II are incubated in 200 μl of 0.1 M acetate buffer, adjusted to various pH values in the presence of the casein substrate sold under the name Enzchek® by the company Molecular Probes, and used at the concentrations recommended by the supplier.
Each assay is repeated three times.
After incubation at 37° C. for 20 hours, the fluorescence is measured on a plate reader sold under the name Biolumin® by the company Molecular Probes, using the excitation/emission couple: 485/535 nm.

[3] = tested on: oxidized beta-chain of insulin; assay: Hydrolysis of the oxidized beta-chain of insulin followed by HPLC; format: biochemical
Protocol: The oxidized beta-chain of insulin (Sigma) is used as substrate. The concentration is 50 μg in 1.5 ml of 0.1 M acetate buffer, pH 5.0. 50 μl of 12 kD SASPase (SEQ ID NO: 6) (approximately 1 mg/ml) purified by gel filtration are added so as to initialize the hydrolysis. Controls without enzyme or without substrate are used. Over time (1 h to 24 h at 37° C.), HPLCs are performed in order to follow the hydrolysis. The peaks that appear rapidly correspond to the main hydrolysis sites and those that only appear after 24 h correspond to the secondary sites. The peaks are collected after they have been fractionated, and are N-terminal sequences (EDMAN sequencing, Pasteur Institute).

kinetics for casein hydrolysis compared with the control [1]: lower than the control
Molecule: Ac-Leu-Leu-Met-aldehyde [RP2]

kinetics for casein hydrolysis compared with the control [1]: significantly higher
Molecule: Ac-Leu-Leu-Nle-aldehyde (Ac-Leu-Leu-[Nle]-aldehyde) [RP3]

kinetics for casein hydrolysis compared with the control [1]: lower than the control
Molecule: Ac-Leu-Val-Phe-aldehyde [RP1]

More lines, now with the values behind:

Molecule: O=C(O)CN(CCN(CC(=O)O)CC(=O)O)CC(=O)O [+control, EDTA, reference compound]
% Residual corneodesmosin T24 h/T0*100 (corneodesmosin; 24 hours): 84% | Standardized corneodesmosin T24 h (corneodesmosin; 24 hours): 26685 | Standardized corneodesmosin T0 (corneodesmosin): 31657

Molecule: EFDLDLIEED (listed as Homo sapiens) [SEQ ID NO: 32]
effect of the peptide substrate on the SASPase (SASPase (GST-C27)): activator effect

Molecule: EFDLELIEED (listed as Homo sapiens) [SEQ ID NO: 31]
effect of the peptide substrate on the SASPase (SASPase (GST-C27)): activator effect | hydrolysis of the peptide substrate by the SASPase (SASPase (GST-C27); 0.1 M acetate buffer pH 5.00, 10 μg GST-C27, 37° C., fluorescence 340/450 nm, FIG. 5): effectively hydrolyzed

B1: (A/D): SASPase mutant, aspartic acid No. 212 substituted to alanine (protein, UniProt Q53RT3 191-326, looked up, variant D212A)
Retroviral-like aspartic …: SMGKGYYLKGKIGKVPVRFLVASGAQVSVVHPNLWEEVTDGDLDTLQPFENVVKVANGAEMKILGVWDTAVSLGKLKLKAQFLVANASAEEAIIGTDVLQDHNAILDFEHRTCTLKGKKFRLLPVGGSLEDEFDLE
autocleavage / autoactivation [2]: do not autoactivate

B2: (E/D): SASPase mutant, aspartic acid No. 212 substituted to glutamic acid (protein, UniProt Q53RT3 191-326, looked up, variant D212E)
Retroviral-like aspartic …: SMGKGYYLKGKIGKVPVRFLVESGAQVSVVHPNLWEEVTDGDLDTLQPFENVVKVANGAEMKILGVWDTAVSLGKLKLKAQFLVANASAEEAIIGTDVLQDHNAILDFEHRTCTLKGKKFRLLPVGGSLEDEFDLE
autocleavage / autoactivation [2]: do not autoactivate

B3: SASPase: novel aspartic acid protease from human keratinocytes, sequence SEQ ID NO: 5; in b201 and b239 the word covers the form tested (protein, listed as Homo Sapiens)
chain: MGSPGASLGIKKALQSEQATALPASAPAVSQPTAPAPSCLPKAGQVIPTLLREAPFSSVIAPTLLCGFLFLAWVAAEVPEESSRMAGSGARSEEGRRQHAFVPEPFDGANVVPNLWLHSFEVINDLNHWDHITKLRFLKESLRGEALGVYNRLSPQDQGDYGTVKEALLKAFGVPGAAPSHLPKEIVFANSMGKGYYLKGKIGKVPVRFLVDSGAQVSVVHPNLWEEVTDGDLDTLQPFENVVKVANGAEMKILGVWDTAVSLGKLKLKAQFLVANASAEEAIIGTDVLQDHNAILDFEHRTCTLKGKKFRLLPVGGSLEDEFDLELIEEDPSSEEGRQELSH
activity in phosphate buffer (casein; 0.1 M phosphate buffer of pH 6 to 7.5, assays not shown): only a weak residual activity | optimal pH of enzymatic activity (casein; GST-SASPase Δ 1-84 fusion protein, 0.1 M acetate buffer, 37° C., 20 hours, FIG. 2): 5 pH | insulin-degrading activity after heat denaturation ([3]; heat denaturation 95° C., 10 min): abolishes its insulin-degrading activity

B4: GST-SASPase C27: recombinant fusion protein of glutathione S-transferase with truncated SASPase Δ 1-84 (SEQ ID NO: 4) (protein, listed as Homo Sapiens)
chain: MAGSGARSEEGRRQHAFVPEPFDGANVVPNLWLHSFEVINDLNHWDHITKLRFLKESLRGEALGVYNRLSPQDQGDYGTVKEALLKAFGVPGAAPSHLPKEIVFANSMGKGYYLKGKIGKVPVRFLVDSGAQVSVVHPNLWEEVTDGDLDTLQPFENVVKVANGAEMKILGVWDTAVSLGKLKLKAQFLVANASAEEAIIGTDVLQDHNAILDFEHRTCTLKGKKFRLLPVGGSLEDEFDLELIEEDPSSEEGRQELSH
autocleavage / autoactivation [2]: autocleavage

B5: activated SASPase: truncated 12 kD activated form of the aspartic acid protease SASPase, sequence SEQ ID NO: 6 (protein, listed as Homo Sapiens)
chain: ANSMGKGYYLKGKIGKVPVRFLVDSGAQVSVVHPNLWEEVTDGDLDTLQPFENVVKVANGAEMKILGVWDTAVSLGKLKLKAQFLVANASAEEAIIGTDVLQDHNAILDFEHRTCTLKGKKFRLLPVGGSLEDEFDLE
percentage of residual corneodesmosin compared with the controls (corneodesmosin; 60 μg of activated SASPase, 24 hours): significant decrease | % Residual corneodesmosin T24 h/T0*100 (corneodesmosin; 24 hours): 75% | Standardized corneodesmosin T24 h (corneodesmosin; 24 hours): 24918 | Standardized corneodesmosin T0 (corneodesmosin): 33107 | insulin-degrading activity ([3]; 0.1 M acetate buffer pH 5.0, 37° C., 1 h to 24 h): capable of degrading insulin
